# Results reported in patent US10138280B2, “Polypeptides targeting glycosylated MUC2 proteins, methods of synthesis, their nucleic acids and uses thereof” (INSTITUT PASTEUR, priority 2011, dated 2018).
# What was measured:
# HT-29 MTX cells = assay: Cell toxicity, Sytox Green assay; type: cell-based, human; settings: differentiated HT-29 MTX; 1 μg/mL, up to 10 h, serum starved media; Student test NS, p>0.05, n=3
# Description: (§1) FIGS. 8A-8D. (FIG. 8A) Cell toxicity of Cy5-MUB70 tested on HT-29-MTX and Hela epithelial cells. Cell survival was assessed using Sytoxgreen dye on cultures exposed to 1 μg/mL Cy5-MUB70 from 0 to 10 h, as indicated. NS indicates P>0.05 (Student's T-test). (FIG. 8B) Rabbit colonic and ileal mucus staining on fixed tissues (PFA 4%), using Cy5-MUB70 (1 μg/mL) (blue). Actin is stained in red (Phall.-RRX). Bar is 50 μm. (FIG. 8C) Human ex vivo colon sample was incubated for 2 h with 1 μg/mL Cy5-MUB70 in a serum-free media. Resulting fluorescent staining was assessed using a two-photons microscope (see Methods). Z-projection, performed using ImageJ software, allows 3D localization of Cy5-MUB70 fluorescence signal. […] Human tissue autofluorescence is detected in the same red channel as Cy5.
# (§2) Hela cells were grown in DMEM medium supplemental with 10% FCS. […] Cell viability was determined by staining with Sytox Green (Invitrogen) as described by the manufacturer. […] Fluorescence was measured using a FACS flow cytometer (BD systems) recording at least 10,000 events. Data were analysed with CellQuest Pro software (BD Biosciences), and expressed as percentage survival.
# (§3) As Cy5-MUB70 was envisaged to be used on living cells and organs, its cell-toxicity has been evaluated. This probe was incubated on differentiated HT-29 MTX and on Hela cells as cell viability was assessed using a Sytox Green assay (see Methods).
# Hela cells = assay: Cell toxicity, Sytox Green assay; type: cell-based, human; settings: 1 μg/mL, up to 10 h, serum starved media, Student test NS, p>0.05, n=3
# Description: as §1, §2, §3
molecule,measurement,setting,value
"Cy5-MUB70: Cy5-labelled MUB70 polypeptide, labelled via Cy5 maleimide on N-terminal cysteine (conjugate) peptide: CVHVQYIDGETDQMLRQDDLDGYTDETIPYSTAEGIKKFEGDGYELFKDNFPAGEKFDNDDTNDQFYTVIF",cell viability,HT-29 MTX cells,do not affect significantly cell viability
same,cell viability,Hela cells,do not affect significantly cell viability
